In article PMC3321182 (The EMBO Journal, 2012):

Molecular target: T1, N-terminal autoproteolysis product of the crystallized HormR-GAIN fragment of rat CL1 (CIRL/Latrophilin 1) (rat, UniProt O88917 460-837)
T1 sequence (looked up): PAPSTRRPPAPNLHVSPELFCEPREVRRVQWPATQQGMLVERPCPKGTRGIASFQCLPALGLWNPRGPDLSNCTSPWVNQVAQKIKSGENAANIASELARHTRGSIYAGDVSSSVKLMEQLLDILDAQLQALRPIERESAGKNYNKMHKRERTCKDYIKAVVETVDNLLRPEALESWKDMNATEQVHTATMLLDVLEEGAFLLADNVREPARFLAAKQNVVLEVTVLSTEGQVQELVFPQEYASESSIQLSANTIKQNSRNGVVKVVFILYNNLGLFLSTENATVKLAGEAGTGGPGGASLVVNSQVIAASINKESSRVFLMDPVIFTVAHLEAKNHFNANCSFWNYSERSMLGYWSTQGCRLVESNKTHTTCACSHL
Assay: crystal structure

binding result: binds
Binder: TNFAVLMAHREI (peptide, UniProt O88917 838-849, looked up)
